Source: article PMC9482650, “Quantitative fragmentomics allow affinity mapping of interactomes” (Nature Communications, 2022)

T1: HTRA4, P83105
T1 sequence (P83105 378-476, limits assumed, looked up): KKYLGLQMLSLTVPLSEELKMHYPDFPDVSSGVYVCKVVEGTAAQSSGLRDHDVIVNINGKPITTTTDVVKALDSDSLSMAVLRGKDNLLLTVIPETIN

T2: DFNB31_1, Q9P202
T2 sequence (Q9P202 135-233, limits assumed, looked up): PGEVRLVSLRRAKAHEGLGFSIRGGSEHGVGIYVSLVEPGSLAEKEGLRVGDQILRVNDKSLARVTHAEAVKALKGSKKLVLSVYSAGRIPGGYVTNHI

T3: TIAM2, Q8IVF5
T3 sequence (Q8IVF5 885-986, limits assumed, looked up): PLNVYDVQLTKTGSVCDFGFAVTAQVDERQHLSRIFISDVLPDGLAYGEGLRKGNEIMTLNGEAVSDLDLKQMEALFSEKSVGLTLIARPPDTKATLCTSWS

T4: MPDZ_10, O75970
T4 sequence (O75970 1624-1722, limits assumed, looked up): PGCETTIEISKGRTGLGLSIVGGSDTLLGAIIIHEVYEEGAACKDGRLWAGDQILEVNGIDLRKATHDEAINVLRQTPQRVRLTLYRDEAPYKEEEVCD

T5: LIN7B, Q9HAP6
T5 sequence (Q9HAP6 88-185, limits assumed, looked up): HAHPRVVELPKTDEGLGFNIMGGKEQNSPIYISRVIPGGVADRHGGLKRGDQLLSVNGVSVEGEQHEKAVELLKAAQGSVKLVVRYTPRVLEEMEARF

T6: RAPGEF6, Q8TEU7
T6 sequence (Q8TEU7 525-625, limits assumed, looked up): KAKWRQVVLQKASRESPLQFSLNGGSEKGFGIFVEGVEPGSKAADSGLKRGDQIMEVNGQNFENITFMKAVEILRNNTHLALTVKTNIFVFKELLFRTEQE

T7: DVL3, Q92997
T7 sequence (Q92997 244-331, limits assumed, looked up): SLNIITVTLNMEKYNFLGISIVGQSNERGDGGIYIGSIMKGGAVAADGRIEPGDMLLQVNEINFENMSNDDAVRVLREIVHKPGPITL

T8: SNTA1, Q13424
T8 sequence (Q13424 82-180, limits assumed, looked up): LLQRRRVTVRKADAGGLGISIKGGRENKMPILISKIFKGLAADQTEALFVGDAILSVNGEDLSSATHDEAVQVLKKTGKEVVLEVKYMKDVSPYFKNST

T9: DLG3_3, Q92796
T9 sequence (Q92796 374-475, limits assumed, looked up): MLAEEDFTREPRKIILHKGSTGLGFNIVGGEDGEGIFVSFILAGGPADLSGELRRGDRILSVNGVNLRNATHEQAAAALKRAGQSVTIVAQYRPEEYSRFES

T10: SNTG1, Q9NSN8
T10 sequence (Q9NSN8 52-150, limits assumed, looked up): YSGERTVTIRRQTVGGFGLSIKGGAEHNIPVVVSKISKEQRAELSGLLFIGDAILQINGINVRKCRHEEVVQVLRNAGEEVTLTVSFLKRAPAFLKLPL

T11: NHERF3_1, Q5T2W1
T11 sequence (Q5T2W1 4-100, limits assumed, looked up): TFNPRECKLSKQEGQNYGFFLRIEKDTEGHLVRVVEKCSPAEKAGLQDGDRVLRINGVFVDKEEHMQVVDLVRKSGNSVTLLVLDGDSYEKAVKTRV

T12: SNTG2, Q9NY99
T12 sequence (Q9NY99 68-166, limits assumed, looked up): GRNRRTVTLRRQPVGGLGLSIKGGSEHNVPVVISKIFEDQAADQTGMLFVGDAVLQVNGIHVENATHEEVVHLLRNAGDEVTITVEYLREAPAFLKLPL

T13: DFNB31_2, Q9P202
T13 sequence (Q9P202 274-371, limits assumed, looked up): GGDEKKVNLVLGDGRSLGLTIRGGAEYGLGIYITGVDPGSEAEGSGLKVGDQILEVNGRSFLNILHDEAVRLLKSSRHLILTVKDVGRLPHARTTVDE


Biological target: T1, HTRA4, P83105
Test: holdup assay
Parameters: key: below the threshold = too weak to quantify, mostly under pKd 3.1 to 4
Conditions: plain residues with an end cap or a label only (N-terminal biotin on a linker: ado-ado)

| pKd | Binder |
| --- | --- |
| 3.92 | DSEEELPTRL [GRK6, P43250] |
| below the threshold | FVFESRKEIL [TBPL1, P62380] |

Biological target: Inadl_8, Q8NI35
Test: holdup assay
Parameters: key: below the threshold = too weak to quantify, mostly under pKd 3.1 to 4
Conditions: plain residues with an end cap or a label only (N-terminal biotin on a linker: ado-ado)

Inadl_8, Q8NI35, sequence (Q8NI35 1425-1530): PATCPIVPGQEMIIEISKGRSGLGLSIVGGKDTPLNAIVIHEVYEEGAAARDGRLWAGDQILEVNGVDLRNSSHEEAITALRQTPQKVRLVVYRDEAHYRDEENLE

| pKd | Binder |
| --- | --- |
| below the threshold | DSEEELPTRL [GRK6, P43250] |
| below the threshold | FVFESRKEIL [TBPL1, P62380] |

Biological target: T2, DFNB31_1, Q9P202
Test: holdup assay
Parameters: key: below the threshold = too weak to quantify, mostly under pKd 3.1 to 4
Conditions: plain residues with an end cap or a label only (N-terminal biotin on a linker: ado-ado)

| pKd | Binder |
| --- | --- |
| below the threshold | DSEEELPTRL [GRK6, P43250] |
| below the threshold | FVFESRKEIL [TBPL1, P62380] |

Biological target: NOS1, P29475
Test: holdup assay
Parameters: key: below the threshold = too weak to quantify, mostly under pKd 3.1 to 4
Conditions: plain residues with an end cap or a label only (N-terminal biotin on a linker: ado-ado)

NOS1, P29475, sequence (P29475 9-101): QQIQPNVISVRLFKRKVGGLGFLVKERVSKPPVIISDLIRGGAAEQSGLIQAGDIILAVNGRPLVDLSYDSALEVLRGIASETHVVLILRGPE

| pKd | Binder |
| --- | --- |
| 3.61 | DSEEELPTRL [GRK6, P43250] |
| 3.68 | FVFESRKEIL [TBPL1, P62380] |

Biological target: T3, TIAM2, Q8IVF5
Test: holdup assay
Parameters: key: below the threshold = too weak to quantify, mostly under pKd 3.1 to 4
Conditions: plain residues with an end cap or a label only (N-terminal biotin on a linker: ado-ado)

| pKd | Binder |
| --- | --- |
| below the threshold | DSEEELPTRL [GRK6, P43250] |
| below the threshold | FVFESRKEIL [TBPL1, P62380] |

Biological target: FRMPD2_3, Q68DX3
Test: holdup assay
Parameters: key: below the threshold = too weak to quantify, mostly under pKd 3.1 to 4
Conditions: plain residues with an end cap or a label only (N-terminal biotin on a linker: ado-ado)

FRMPD2_3, Q68DX3, sequence (Q68DX3 1073-1166): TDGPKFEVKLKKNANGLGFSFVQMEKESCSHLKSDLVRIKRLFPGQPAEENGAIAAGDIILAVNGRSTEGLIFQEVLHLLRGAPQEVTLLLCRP

| pKd | Binder |
| --- | --- |
| 3.53 | DSEEELPTRL [GRK6, P43250] |
| below the threshold | FVFESRKEIL [TBPL1, P62380] |

Biological target: DLG5_1, Q8TDM6
Test: holdup assay
Parameters: key: below the threshold = too weak to quantify, mostly under pKd 3.1 to 4
Conditions: plain residues with an end cap or a label only (N-terminal biotin on a linker: ado-ado)

DLG5_1, Q8TDM6, sequence (Q8TDM6 617-713): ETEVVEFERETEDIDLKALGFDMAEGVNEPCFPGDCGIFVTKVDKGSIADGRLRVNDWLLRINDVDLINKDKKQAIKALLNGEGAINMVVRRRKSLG

| pKd | Binder |
| --- | --- |
| below the threshold | DSEEELPTRL [GRK6, P43250] |
| below the threshold | FVFESRKEIL [TBPL1, P62380] |

Biological target: SCRIB_1, Q14160
Test: holdup assay
Parameters: key: below the threshold = too weak to quantify, mostly under pKd 3.1 to 4
Conditions: plain residues with an end cap or a label only (N-terminal biotin on a linker: ado-ado)

SCRIB_1, Q14160, sequence (Q14160 718-814): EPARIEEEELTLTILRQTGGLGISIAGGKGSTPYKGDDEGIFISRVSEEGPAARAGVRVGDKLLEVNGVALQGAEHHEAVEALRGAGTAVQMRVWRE

| pKd | Binder |
| --- | --- |
| 3.53 | DSEEELPTRL [GRK6, P43250] |
| below the threshold | FVFESRKEIL [TBPL1, P62380] |

Biological target: T4, MPDZ_10, O75970
Test: holdup assay
Parameters: key: below the threshold = too weak to quantify, mostly under pKd 3.1 to 4
Conditions: plain residues with an end cap or a label only (N-terminal biotin on a linker: ado-ado)

| pKd | Binder |
| --- | --- |
| below the threshold | DSEEELPTRL [GRK6, P43250] |
| below the threshold | FVFESRKEIL [TBPL1, P62380] |

Biological target: T5, LIN7B, Q9HAP6
Test: holdup assay
Parameters: key: below the threshold = too weak to quantify, mostly under pKd 3.1 to 4
Conditions: plain residues with an end cap or a label only (N-terminal biotin on a linker: ado-ado)

| pKd | Binder |
| --- | --- |
| below the threshold | DSEEELPTRL [GRK6, P43250] |
| below the threshold | FVFESRKEIL [TBPL1, P62380] |

Biological target: LIMK2, P53671
Test: holdup assay
Parameters: key: below the threshold = too weak to quantify, mostly under pKd 3.1 to 4
Conditions: plain residues with an end cap or a label only (N-terminal biotin on a linker: ado-ado)

LIMK2, P53671, sequence (P53671 143-248): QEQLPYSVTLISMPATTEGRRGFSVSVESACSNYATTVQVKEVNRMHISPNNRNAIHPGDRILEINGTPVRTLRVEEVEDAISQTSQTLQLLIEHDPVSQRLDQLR

| pKd | Binder |
| --- | --- |
| below the threshold | DSEEELPTRL [GRK6, P43250] |
| below the threshold | FVFESRKEIL [TBPL1, P62380] |

Biological target: IL16_4, Q14005
Test: holdup assay
Parameters: key: below the threshold = too weak to quantify, mostly under pKd 3.1 to 4
Conditions: plain residues with an end cap or a label only (N-terminal biotin on a linker: ado-ado)

IL16_4, Q14005, sequence (Q14005 1229-1329): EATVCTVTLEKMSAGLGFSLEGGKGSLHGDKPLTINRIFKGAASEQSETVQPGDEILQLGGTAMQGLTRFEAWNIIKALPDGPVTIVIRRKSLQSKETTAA

| pKd | Binder |
| --- | --- |
| below the threshold | DSEEELPTRL [GRK6, P43250] |
| below the threshold | FVFESRKEIL [TBPL1, P62380] |

Biological target: PARD3_3, Q8TEW0
Test: holdup assay
Parameters: key: below the threshold = too weak to quantify, mostly under pKd 3.1 to 4
Conditions: plain residues with an end cap or a label only (N-terminal biotin on a linker: ado-ado)

PARD3_3, Q8TEW0, sequence (Q8TEW0 582-685): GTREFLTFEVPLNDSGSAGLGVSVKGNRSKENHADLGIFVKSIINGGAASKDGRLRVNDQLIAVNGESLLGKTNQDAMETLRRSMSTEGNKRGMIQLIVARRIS

| pKd | Binder |
| --- | --- |
| 4.09 | DSEEELPTRL [GRK6, P43250] |
| below the threshold | FVFESRKEIL [TBPL1, P62380] |

Biological target: PDLIM1, O00151
Test: holdup assay
Parameters: key: below the threshold = too weak to quantify, mostly under pKd 3.1 to 4
Conditions: plain residues with an end cap or a label only (N-terminal biotin on a linker: ado-ado)

PDLIM1, O00151, sequence (O00151 1-87): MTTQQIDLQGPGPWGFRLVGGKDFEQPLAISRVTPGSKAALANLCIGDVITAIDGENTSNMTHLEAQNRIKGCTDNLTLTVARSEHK

| pKd | Binder |
| --- | --- |
| below the threshold | DSEEELPTRL [GRK6, P43250] |
| below the threshold | FVFESRKEIL [TBPL1, P62380] |

Biological target: GRIP2_5, Q9C0E4
Test: holdup assay
Parameters: key: below the threshold = too weak to quantify, mostly under pKd 3.1 to 4
Conditions: plain residues with an end cap or a label only (N-terminal biotin on a linker: ado-ado)

GRIP2_5, Q9C0E4, sequence (Q9C0E4 544-642): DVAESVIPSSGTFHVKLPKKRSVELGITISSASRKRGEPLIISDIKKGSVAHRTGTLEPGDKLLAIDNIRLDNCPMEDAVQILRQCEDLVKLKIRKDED

| pKd | Binder |
| --- | --- |
| below the threshold | DSEEELPTRL [GRK6, P43250] |
| below the threshold | FVFESRKEIL [TBPL1, P62380] |

Biological target: T6, RAPGEF6, Q8TEU7
Test: holdup assay
Parameters: key: below the threshold = too weak to quantify, mostly under pKd 3.1 to 4
Conditions: plain residues with an end cap or a label only (N-terminal biotin on a linker: ado-ado)

| pKd | Binder |
| --- | --- |
| below the threshold | DSEEELPTRL [GRK6, P43250] |
| below the threshold | FVFESRKEIL [TBPL1, P62380] |

Biological target: T7, DVL3, Q92997
Test: holdup assay
Parameters: key: below the threshold = too weak to quantify, mostly under pKd 3.1 to 4
Conditions: plain residues with an end cap or a label only (N-terminal biotin on a linker: ado-ado)

| pKd | Binder |
| --- | --- |
| below the threshold | DSEEELPTRL [GRK6, P43250] |
| below the threshold | FVFESRKEIL [TBPL1, P62380] |

Biological target: GORASP2, Q9H8Y8
Test: holdup assay
Parameters: key: below the threshold = too weak to quantify, mostly under pKd 3.1 to 4
Conditions: plain residues with an end cap or a label only (N-terminal biotin on a linker: ado-ado)

| pKd | Binder |
| --- | --- |
| below the threshold | DSEEELPTRL [GRK6, P43250] |
| below the threshold | FVFESRKEIL [TBPL1, P62380] |

Biological target: T8, SNTA1, Q13424
Test: holdup assay
Parameters: key: below the threshold = too weak to quantify, mostly under pKd 3.1 to 4
Conditions: plain residues with an end cap or a label only (N-terminal biotin on a linker: ado-ado)

| pKd | Binder |
| --- | --- |
| below the threshold | DSEEELPTRL [GRK6, P43250] |
| below the threshold | FVFESRKEIL [TBPL1, P62380] |

Biological target: IL16_1, Q14005
Test: holdup assay
Parameters: key: below the threshold = too weak to quantify, mostly under pKd 3.1 to 4
Conditions: plain residues with an end cap or a label only (N-terminal biotin on a linker: ado-ado)

IL16_1, Q14005, sequence (Q14005 210-306): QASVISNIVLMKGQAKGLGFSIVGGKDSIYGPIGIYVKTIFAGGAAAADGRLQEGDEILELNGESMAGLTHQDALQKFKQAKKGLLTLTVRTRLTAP

| pKd | Binder |
| --- | --- |
| below the threshold | DSEEELPTRL [GRK6, P43250] |
| below the threshold | FVFESRKEIL [TBPL1, P62380] |

Biological target: T9, DLG3_3, Q92796
Test: holdup assay
Parameters: key: below the threshold = too weak to quantify, mostly under pKd 3.1 to 4
Conditions: plain residues with an end cap or a label only (N-terminal biotin on a linker: ado-ado)

| pKd | Binder |
| --- | --- |
| below the threshold | DSEEELPTRL [GRK6, P43250] |
| below the threshold | FVFESRKEIL [TBPL1, P62380] |

Biological target: T10, SNTG1, Q9NSN8
Test: holdup assay
Parameters: key: below the threshold = too weak to quantify, mostly under pKd 3.1 to 4
Conditions: plain residues with an end cap or a label only (N-terminal biotin on a linker: ado-ado)

| pKd | Binder |
| --- | --- |
| below the threshold | DSEEELPTRL [GRK6, P43250] |
| below the threshold | FVFESRKEIL [TBPL1, P62380] |

Biological target: T11, NHERF3_1, Q5T2W1
Test: holdup assay
Parameters: key: below the threshold = too weak to quantify, mostly under pKd 3.1 to 4
Conditions: plain residues with an end cap or a label only (N-terminal biotin on a linker: ado-ado)

| pKd | Binder |
| --- | --- |
| 4.06 | DSEEELPTRL [GRK6, P43250] |
| below the threshold | FVFESRKEIL [TBPL1, P62380] |

Biological target: T12, SNTG2, Q9NY99
Test: holdup assay
Parameters: key: below the threshold = too weak to quantify, mostly under pKd 3.1 to 4
Conditions: plain residues with an end cap or a label only (N-terminal biotin on a linker: ado-ado)

| pKd | Binder |
| --- | --- |
| 3.57 | DSEEELPTRL [GRK6, P43250] |
| below the threshold | FVFESRKEIL [TBPL1, P62380] |

Biological target: T13, DFNB31_2, Q9P202
Test: holdup assay
Parameters: key: below the threshold = too weak to quantify, mostly under pKd 3.1 to 4
Conditions: plain residues with an end cap or a label only (N-terminal biotin on a linker: ado-ado)

| pKd | Binder |
| --- | --- |
| below the threshold | DSEEELPTRL [GRK6, P43250] |
| below the threshold | FVFESRKEIL [TBPL1, P62380] |
